Assay results: PMC11068555

Biological target: SARS-CoV-2 S Foldon his (prefusion stabilized spike ectodomain) (SARS-CoV-2 (Wuhan-Hu-1) | bacteriophage T4) (UniProt P0DTC2)
Test: native gel or EMSA

“SARS-CoV-2 S Foldon his (prefusion stabilized spike ectodomain) (from UniProt P0DTC2 14-1138) (domain or fragment)” was tested, and the stoichiometry N was 3.
